The record followed here is the supplement of paper PMC12042874.

± gives the uncertainty stated by the source.

The nature of this data set: amyloid nucleation score (Sup35N fusion, yeast selection) (log enrichment); library NNK3; higher = more nucleation; inactive = no reads after selection. A digest of the protocol: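 For the nucleation score, DiMSum gave the log enrichment of output over input reads, centred on the mode score of non-aggregating sequences. Psi-negative yeast expressing Sup35N fused to peptides of 20 random codons were induced with 100 μM copper sulfate for 24 hours and grown 7 days at 30°C on medium lacking adenine and uracil. Input and output plasmid inserts were Illumina-sequenced, and sequences with under 100 input reads were excluded.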
Take TPMGQCAYHEPVNMVKKALR: the amyloid nucleation score entry is “inactive”.

The substance TPRQFSDGCISFNKVTINPQ yielded an amyloid nucleation score of 0.704 ± 0.34.

As to TPYILLG, the amyloid nucleation score entry was “inactive”.

With TQFISLSGGRTHLSGFLVFG, the amyloid nucleation score was determined as 0.957 ± 0.14.

Regarding TQGYVFKELAGVSRYTEA, the amyloid nucleation score result is “inactive”.

Consider TQPDLV, for which the amyloid nucleation score result is “inactive”.

For the substance TRCGFS, the amyloid nucleation score result was “inactive”.

Consider TRCTGSYNNYG, for which the amyloid nucleation score result is “inactive”.

On to TRGLWYQHVDHSTFRLKEST, for which the amyloid nucleation score entry is “inactive”.

In turn, TRIFVCVFVCTTPTMHAPIW yielded an amyloid nucleation score of 0.921 ± 0.23.

For TRISMSENKVVKREVVATRR, the amyloid nucleation score result is “inactive”.

For the substance TRKDDFDLSGCSR, the amyloid nucleation score result was “inactive”.

TRLTL: the amyloid nucleation score result was “inactive”.

For the substance TRMDIESGYVLESYSRPSPM, the amyloid nucleation score entry is “inactive”.

As for TRNCGRSGYRL, the amyloid nucleation score came out at 1.13 ± 0.089.

On to TRNYFNPVSRRGVTVSRGLY, for which the amyloid nucleation score result was “inactive”.

For TRRATGYFHFS, the amyloid nucleation score entry is “inactive”.

TRSWCGDMYSHC: the amyloid nucleation score entry was “inactive”.

As for TRTMAVDTVGCSENRDAAGD, the amyloid nucleation score result is “inactive”.

Turning to TRVTS, the amyloid nucleation score result was “inactive”.

For TRYKELSFNTVSLVRYCAGG, the amyloid nucleation score result is “inactive”.

As to TSDIAPFRDLLIASA, the amyloid nucleation score result was “inactive”.

Regarding TSFWGGALEDSATITLECWF, the amyloid nucleation score was -0.24 ± 1.3.

TSGAANHYLYSSVSWTFFLL registered an amyloid nucleation score of 0.764 ± 0.19.

As for TSGDMRAVYGLYREIRLVNT, the amyloid nucleation score entry is “inactive”.

TSGSEDLLYGRDVVVYRSGC: the amyloid nucleation score result was “inactive”.

With TSPGFYGWMSNSTSSNDIVA, the amyloid nucleation score entry was “inactive”.

TSPNYTGPMNSCLRAWLWDR: the amyloid nucleation score entry is “inactive”.

TSRRVCLQ: the amyloid nucleation score result was “inactive”.

As to TSRYIGL, the amyloid nucleation score entry is “inactive”.

On to TSSQKDIWQDVYGLLFWAQS, for which the amyloid nucleation score entry is “inactive”.

For the substance TSTFARDKVDFAVLSLF, the amyloid nucleation score entry is “inactive”.

As to TSTNNSRKYSSQRRWMHPLG, the amyloid nucleation score entry is “inactive”.

As for TSTRHDGGFMVMWYLLGLTR, the amyloid nucleation score entry was “inactive”.

As to TSTYANKALTVLE, the amyloid nucleation score entry is “inactive”.

Regarding TSVGYNRIMFQERNIHPELN, the amyloid nucleation score result is “inactive”.

In the case of TTRLNFENVNVTLLNYKSMG, the amyloid nucleation score amounted to 1.19 ± 0.069.

Turning to TTRRVGCLMGFLVDFRIKSC, the amyloid nucleation score entry is “inactive”.

In the case of TTSVIAGLW, the amyloid nucleation score result is “inactive”.

TVEVNCCYLEGNVV returned an amyloid nucleation score of 1.03 ± 0.089.

As for TVHTNLCAMLMFTGYF, the amyloid nucleation score entry was “inactive”.

As to TVLCFSACQENFSSSLRRLY, the amyloid nucleation score entry is “inactive”.

With TVRWDVSLMFMRPMMYGEPK, the amyloid nucleation score is -0.13 ± 1.1.

Consider TVTHALLSYKCHNG, for which the amyloid nucleation score entry is “inactive”.

Consider TVTSSFATLNQVYGPHVFVN, for which the amyloid nucleation score result was “inactive”.

For the substance TVVLSWPMYAECKFSCICMT, the amyloid nucleation score was determined as 1.38 ± 0.1.

Consider TWCSIMDLLVQLRVRNLFGK, for which the amyloid nucleation score entry is “inactive”.

On to TWDMSLT, for which the amyloid nucleation score result was “inactive”.

Turning to TWEVYTMCIRNGGVLGLFIF, the amyloid nucleation score entry is “inactive”.

TWFTSFYCFSNNAYLYF showed an amyloid nucleation score of 1.8 ± 0.066.

TWINFFGTYILWPNFNYSTR yielded an amyloid nucleation score of 2.66 ± 0.064.

Substance TWMKMSTEWRTLDLDCWNSS gave an amyloid nucleation score of 1.34 ± 0.13.

With TWSGQGHR, the amyloid nucleation score result was “inactive”.

As to TWSWVVAASVKLISFKL, the amyloid nucleation score result is “inactive”.

For TYCERKFTTSGTSYTSQKYF, the amyloid nucleation score entry is “inactive”.

For TYFTFSREVKMMVHTNCCLL, the amyloid nucleation score worked out at 0.594 ± 0.2.

As for TYFVVDGYVGMFCLIGDISS, the amyloid nucleation score turned out to be 2.69 ± 0.052.

As for TYLVMS, the amyloid nucleation score entry was “inactive”.

Consider TYMCQVFNILDSQKYCYMRR, for which the amyloid nucleation score entry is “inactive”.

TYPSEVYFIMFAMFSSTCWS: the amyloid nucleation score entry is “inactive”.

Consider TYPTYRVWVEEQCRLYDTNR, for which the amyloid nucleation score result is “inactive”.

In the case of TYQVILSFYDLWFGRSAYCQ, the amyloid nucleation score result was “inactive”.

Regarding TYRLAVLS, the amyloid nucleation score entry is “inactive”.

Substance TYVIFCYTVSHDDSHRTLYN displayed an amyloid nucleation score of 2.19 ± 0.084.

Regarding TYVRHFVIRFMREGRSLGGR, the amyloid nucleation score entry is “inactive”.

Turning to TYVVMGFRCETFRIHNGLRR, the amyloid nucleation score result was “inactive”.

On to TYYNHIRLVYLIGAKRWEEL, for which the amyloid nucleation score result was “inactive”.

VACRFHMCLWLGRVLDYAKN registered an amyloid nucleation score of 1.1 ± 0.14.

As to VAFDIINRQNIINEWGCWID, the amyloid nucleation score entry is “inactive”.

Regarding VAFVNKCFSD, the amyloid nucleation score result is “inactive”.

With VAKFYRQ, the amyloid nucleation score result is “inactive”.

Turning to VAKHNAR, the amyloid nucleation score entry is “inactive”.

On to VAKLKRTWTVWLVIYSRKSW, for which the amyloid nucleation score entry was “inactive”.

VAQFDRNLKPKVNYAVNELQ: the amyloid nucleation score result was “inactive”.

Take VAWAASARRHMYIPDRDSCA: the amyloid nucleation score entry was “inactive”.

On to VCGAVSKPLWIRCTVDPRGR, for which the amyloid nucleation score result is “inactive”.

Substance VCIPYMVVVFISSIP registered an amyloid nucleation score of 1.72 ± 0.11.

For the substance VCITRMQVRLPTYLRVQSKA, the amyloid nucleation score entry is “inactive”.

Substance VCLFICLNDDFLIRRPDCLS registered an amyloid nucleation score of 2.08 ± 0.051.

Turning to VCRFYIGFTYWLSCC, the amyloid nucleation score result is “inactive”.

VCWSHNPRPTDDY: the amyloid nucleation score entry is “inactive”.

On to VCYNLCRKIPDSLSKIPDRR, for which the amyloid nucleation score entry was “inactive”.

For VDKLGSYPMPLVLGVVNTYQ, the amyloid nucleation score result was “inactive”.

Turning to VDKQPDLIAHRMWTKVG, the amyloid nucleation score entry is “inactive”.

With VDTKFSISYTGKTC, the amyloid nucleation score result is “inactive”.

With VDVSRTFALCHRDLPMMP, the amyloid nucleation score result is “inactive”.

For VDWKVAR, the amyloid nucleation score result was “inactive”.

Consider VDYSRALTAYVCIPANFSVP, for which the amyloid nucleation score entry was “inactive”.

For VECNIEIHNISSFPSTEKNQ, the amyloid nucleation score worked out at 2.41 ± 0.06.

With VEHHDFSRSSSAYTRVL, the amyloid nucleation score entry is “inactive”.

On to VELTC, for which the amyloid nucleation score entry was “inactive”.

As for VEMGDSVRSRGYSISVFLRK, the amyloid nucleation score entry was “inactive”.

Regarding VERKNVLFRYHAVGFVLGDV, the amyloid nucleation score result is “inactive”.

In the case of VERSSLVEWSCDRVSKWYFV, the amyloid nucleation score came to 0.298 ± 0.74.

Regarding VEYLFVNCWSTE, the amyloid nucleation score entry is “inactive”.

VFDYADDYYTVNGTVLSPAE showed an amyloid nucleation score of -0.283 ± 0.32.

Take VFEAAALVCNCGTWDRGLND: the amyloid nucleation score worked out at 1.79 ± 0.1.

In the case of VFISRKCWRNHNF, the amyloid nucleation score entry is “inactive”.

The substance VFKWWM gave an amyloid nucleation score of 1.2 ± 0.16.

In the case of VFLSSELSTLLVVYRLLGSG, the amyloid nucleation score entry is “inactive”.

Take VFLVQFFFINFLGNSN: the amyloid nucleation score is 2.45 ± 0.067.

Turning to VFLYTNKYRYGCCGFAFTPF, the amyloid nucleation score result is “inactive”.

VFNLLYVGFHVDSIGVGCVI displayed an amyloid nucleation score of 1.97 ± 0.096.

Regarding VFNRSSAT, the amyloid nucleation score entry was “inactive”.

With VFPFIRNKV, the amyloid nucleation score result was “inactive”.

Consider VFPFSSFFKFLQRSWCGRDE, for which the amyloid nucleation score was 1.22 ± 0.12.

VFRLKSVLSGLLQAHRLAGI: the amyloid nucleation score entry is “inactive”.

On to VFTSGLCEKS, for which the amyloid nucleation score came out at 0.195 ± 0.72.

Turning to VFTWILSDSHTSMWFRCQGG, the amyloid nucleation score result is “inactive”.

With VGGQISRDNGCLSILMSFDN, the amyloid nucleation score entry is “inactive”.

On to VGKFRLMIHVTSHYGFCDLF, for which the amyloid nucleation score entry is “inactive”.

Consider VGLALRLCLAVLSDRKWILS, for which the amyloid nucleation score result is “inactive”.

Regarding VGLFRESPWEV, the amyloid nucleation score result is “inactive”.

Consider VGLRNLGFVMFSRWLTPLLI, for which the amyloid nucleation score result is “inactive”.

As for VGLSYVMINLGLPYLGRSAT, the amyloid nucleation score was 1.83 ± 0.082.

On to VGMRNTSLRCLVLIG, for which the amyloid nucleation score result was “inactive”.

With VGRAD, the amyloid nucleation score result was “inactive”.

Take VGRPTASGLRNCMWSLSWCV: the amyloid nucleation score entry was “inactive”.

For the substance VGWIHYCQGTYKRMFGITGR, the amyloid nucleation score result was “inactive”.

In the case of VGYAGVIIEKKYHCPKKSAF, the amyloid nucleation score entry was “inactive”.

Regarding VGYTNLVFGDLLLFCMFNWD, the amyloid nucleation score was 0.109 ± 0.45.

Consider VHFLILETFKQNMWGYDLTL, for which the amyloid nucleation score result is “inactive”.

As for VHGIRSELDRYLMNTNSTEL, the amyloid nucleation score entry was “inactive”.

For the substance VHLNPEN, the amyloid nucleation score result was “inactive”.

As for VHVSVCRSKGWHDLWRIKCV, the amyloid nucleation score entry was “inactive”.

Substance VHYSWSTFFD came in with an amyloid nucleation score of 0.593 ± 0.27.

Regarding VICGGNRLRSIQWTFWLWDN, the amyloid nucleation score entry was “inactive”.

Take VIFFSRSAYYKVISGRVI: the amyloid nucleation score entry is “inactive”.

As to VIHEDMVLTGF, the amyloid nucleation score entry is “inactive”.

Take VIHSLLALTDLMSKSYLTIY: the amyloid nucleation score result was “inactive”.

For the substance VIMRMFSFARLFVGSYPFRV, the amyloid nucleation score result was “inactive”.

For VIRIGDPILTV, the amyloid nucleation score entry was “inactive”.
